27 sequences from patent publication US20100233678 can be followed below.

Series [1] deals with IgM, monoclonal (Homo sapiens). Description: filter. As to conditions: 37.5 mM NaCl, 3.75 mM sodium citrate, pH 6.0.
In series [2] the test system is IgG Fab2 fragment (Homo sapiens). Nature of the series: filter. The following applies: 37.5 mM NaCl, 3.75 mM sodium citrate, pH 6.0.
The subject of series [3] is IgA, monoclonal (Homo sapiens). Description: filter. The following applies: 37.5 mM NaCl, 3.75 mM sodium citrate, pH 6.0.
In series [4] the test system is IgG, polyclonal (ChromPure) (Homo sapiens). Nature of the series: filter. The following applies: ultrafiltration, 41 mM Na+, pH 6.
In series [5] the test system is IgG, polyclonal (Mus musculus). Description: filter. The following applies: 37.5 mM NaCl, 3.75 mM sodium citrate, pH 6.0.
Series [6] deals with IgG1, monoclonal (Homo sapiens). Description: filter. As to conditions: 37.5 mM NaCl, 3.75 mM sodium citrate, pH 6.0.
Series [7] concerns IgG Fab2 fragment (Mus musculus). Nature of the series: filter. As to conditions: 37.5 mM NaCl, 3.75 mM sodium citrate, pH 6.0.
Series [8] deals with IgG4, monoclonal (Homo sapiens). Description: filter. As to conditions: 37.5 mM NaCl, 3.75 mM Na citrate, pH 6.0.
Series [9] relates to IgG2, monoclonal (Homo sapiens). Description: filter. The following applies: 37.5 mM NaCl, 3.75 mM sodium citrate, pH 6.0.
Series [10] relates to IgG3, monoclonal (Homo sapiens). Description: filter. As to conditions: 37.5 mM NaCl, 3.75 mM Na citrate, pH 6.0.
In series [11] the test system is IgG Fc fragment (Homo sapiens). Description: filter. The following applies: 37.5 mM NaCl, 3.75 mM sodium citrate, pH 6.0.
Series [12] relates to IgG, polyclonal (Mus musculus). Description: FP. The following applies: 10 nM DNA, 1 uM IgG, PBS pH 7.0, 45 min.
Where [13] appears, read: hexaethylene glycol (iSp18) linkers as both loops.

On to TTTTCGCGCGTACGCGCGCGAA [RAD15], for which the Ka (log10 Ka (M-1)) was found to be 6.19 in [1]; 5.33 in series [2]; 6.23 in series [3]; 7 in series [4] (pH 5 7.65, pH 7 6.33, pH 8 6.19); 6.35 in series [5]; 6.39 in [6]. Also, the Ka (log10 Ka (M-1)) in [7] is 6.21; in series [9] it was 6.18. Besides, the Ka in series [8] is 6.13 log10 M-1; in series [10] it was 6.22 log10 M-1.
Regarding TGGTTGGTTTTTGGAAGGATTTTTTCCTTCC [RAD3], the Ka (log10 Ka (M-1)) worked out at 6.71 in series [1]; 6.97 in [2]; 7.38 in series [3]; 7.79 in series [4] (pH 5 8.60, pH 7 6.86, pH 8 6.76); 7.69 in series [5]; 7.45 in series [6]. In addition, the Ka (log10 Ka (M-1)) in series [7] amounted to 7.09; in series [9] it was 7.36; in series [11] it was 6.34. Further, the Ka in series [8] was 7.2 log10 M-1; in series [10], 6.69 log10 M-1.
For TTCCTTCCTTCCTTCCTTC [RAD25], the binding signal (% polarization change) in series [12] worked out at 22.
For CCTCTTCTTTTTCTTCTC [RAD20], the Ka (log10 Ka (M-1)) in series [1] was 7.02; in series [2] it was 6.9; in series [3], 7.53; in series [4] (pH 5 8.11, pH 7 7.40, pH 8 6.64), 7.98; in [5] it was 8.3; in series [6], 7.34. For the same sequence, the results for the Ka (log10 Ka (M-1)) in [7], in series [9] and in series [11] were 7.41, 7.85 and 5.96, respectively. For the same sequence, the Ka in series [8] was 7.67 log10 M-1; in series [10], 6.84 log10 M-1.
In series [12], GGAGGTGCTCCGAAAGGAACTCC [RAD30] came in with a binding signal (% polarization change) of 15.
Take CCTCTTCHEGCTTCTCCHEGGGAGAAG [RAD1]: the Ka (log10 Ka (M-1)) turned out to be 6.32 in series [1] (setting [13]); 5.82 in [2] (setting [13]); 6.37 in series [3] (setting [13]); 6.51 in [4] (hexaethylene glycol (iSp18) linkers as both loops, pH 5 7.45, pH 7 6.49, pH 8 6.30); 6.6 in series [5] (setting [13]); 6.38 in series [6] (setting [13]). Further, the Ka (log10 Ka (M-1)) came to 6.38 in series [7] (setting [13]), 6.51 in series [9] (setting [13]) and 5.8 in [11] (setting [13]).
As for CCTCTTCTTTTTCTTCTCCTTTTTGGAGAAG [RAD2], the Ka (log10 Ka (M-1)) in series [1] was determined as 6.73; in series [2], 6.45; in series [3], 6.9; in series [4] (pH 5 8.74, pH 7 6.96, pH 8 6.57), 7.61; in series [5] it was 7.49; in [6], 7.04. The Ka (log10 Ka (M-1)) in series [7] was found to be 6.71; in series [9] it was 7.06; in [11] it was 5.86. For the same sequence, the results for the Ka in [8] and in series [10] were 7.08 log10 M-1 and 6.64 log10 M-1, respectively.
In series [4] (pH 5 8.41, pH 7 6.86, pH 8 6.84), TGGAGTCTGCGCGAGTCAGCGCTCAAGATC [RAD8] yielded a Ka (log10 Ka (M-1)) of 7.85.
Turning to TTTTCGCGCGTTAACGCGCGAA [RAD16], the Ka (log10 Ka (M-1)) amounted to 6.26 in [1]; 6.23 in series [2]; 6.46 in series [3]; 7.8 in series [4] (pH 5 8.22, pH 7 7.25, pH 8 6.79); 7.07 in series [5]; 6.87 in series [6]. For the same sequence, the Ka (log10 Ka (M-1)) in series [7] and in series [9] was 6.11 each time. In addition, the Ka is 6.54 log10 M-1 in series [8] and 6.31 log10 M-1 in series [10].
In turn, TCCCTTTCCCTTTCCCTTTCCC [RAD28] registered a binding signal (% polarization change) in series [12] of 22.
As for CCTTCCTTTGGAAGGTTG [RAD23], the Ka (log10 Ka (M-1)) worked out at 6.08 in series [1]; 5.64 in series [2]; 6.38 in series [3]; 6.88 in series [4] (pH 5 7.37, pH 7 6.31, pH 8 6.21); 6.77 in [5]; 6.14 in series [6]. Also, the Ka (log10 Ka (M-1)) in series [7] is 6.33; in series [9], 6.86. For the same sequence, the Ka in series [8] is 5.97 log10 M-1; in [10], 5.62 log10 M-1.
GGTTGGTTTGGTTGG [RAD13 (TTT-aptamer)]: the Ka (log10 Ka (M-1)) in series [4] (pH 5 7.55, pH 7 6.46, pH 8 6.53) was found to be 6.96.
TCCTCTTCTTTTTCTTCTC [RAD24] gave a binding signal (% polarization change) in series [12] of 21.
In [4] (pH 5 8.31, pH 7 6.85, pH 8 6.85), TGGGCCGGTAACGGATTACCGTAAGGTCCC [RAD11] registered a Ka (log10 Ka (M-1)) of 7.64.
On to GGAAAGGTTTTTGGAAAGGTTTTTCCTTTCC [RAD6], for which the Ka (log10 Ka (M-1)) in series [4] (pH 5 8.50, pH 7 6.86, pH 8 6.74) was 7.96.
Turning to TCTCTCTCTCTCTCTCTCT [RAD26], the binding signal (% polarization change) in [12] turned out to be 38.
Sequence “AGGCCGCGCCCCCCGCGCCCACCGCCCCGGTGCC [RAD29]” displayed a binding signal (% polarization change) in [12] of 19.
On to GAGTGAGTCTCAGTTAGTTTCGATTGATTCT [RAD5], for which the Ka (log10 Ka (M-1)) in series [4] (pH 5 8.75, pH 7 7.11, pH 8 6.81) was determined as 8.03.
CGCGAAAACGCG [RAD22]: in series [4] (pH 5 5.95, pH 7 6.04, pH 8 5.97), the Ka (log10 Ka (M-1)) stood at 6.25.
In the case of TTTGGTTGGTTTGGTTGG [RAD19], in series [4] (inosine at I positions [inosine at 4,14], pH 5 7.82, pH 7 6.50, pH 8 6.04), the Ka (log10 Ka (M-1)) was determined as 7.14.
In the case of CTCTCTCTTTTTCTCTCTCTTTTTGAGAGAG [RAD9], the Ka (log10 Ka (M-1)) in series [1] was 6.79; in [2] it was 6.44; in [3] it was 6.95; in series [4] (pH 5 8.67, pH 7 7.04, pH 8 6.94), 7.74; in [5] it was 7.46; in [6], 7.05. The Ka (log10 Ka (M-1)) in [7] worked out at 6.75; in series [9] it was 7.05; in [11], 5.87. The Ka is 7.06 log10 M-1 in series [8] and 6.62 log10 M-1 in series [10].
On to CCTCTTCCTTCTCCGGAGAAG [RAD1], for which the Ka in series [8] (two hexaethylene glycol (iSp18) linkers as loops [iSp18 (hexaethylene glycol) linkers left out between 7-8 and 14-15]) was 6.37 log10 M-1; in series [10] (two hexaethylene glycol (iSp18) linkers as loops [iSp18 (hexaethylene glycol) linkers left out between 7-8 and 14-15], ultrafiltration, Picogreen) it was 6.17 log10 M-1.
With TGGGCCGGTAACGGGTTACCGTAAGGTCCC [RAD10], the Ka (log10 Ka (M-1)) is 6.7 in [1]; 6.43 in series [2]; 6.92 in series [3]; 7.65 in series [4] (pH 5 8.41, pH 7 6.81, pH 8 6.72); 7.53 in series [5]; 7.04 in series [6]. For the same sequence, the Ka (log10 Ka (M-1)) in series [7] turned out to be 6.76; in [9] it was 7.01; in series [11] it was 5.92. For the same sequence, the Ka is 7 log10 M-1 in [8] and 6.62 log10 M-1 in series [10].
On to GAGAGAGTTTTTGAGAGAGTTTTTCTCTCTC [RAD7], for which the Ka (log10 Ka (M-1)) in series [1] is 6.89; in series [2], 6.68; in series [3] it was 7.33; in series [4] (pH 5 8.51, pH 7 6.97, pH 8 6.79) it was 8.04; in [5], 7.69; in [6] it was 7.3. The figures for the Ka (log10 Ka (M-1)) in series [7], in series [9] and in series [11] were 6.97, 7.25 and 5.99, respectively. In addition, the Ka is 7.16 log10 M-1 in series [8] and 6.74 log10 M-1 in series [10].
TTTTCGCGTGTGTGCGCGAA [RAD12] registered a Ka (log10 Ka (M-1)) in [4] (pH 5 7.61, pH 7 6.37, pH 8 5.74) of 6.98.
As for CCCTCCCTGGGCTTTTTTTGATTTTTCTTAA [RAD4], the Ka (log10 Ka (M-1)) was found to be 6.89 in series [1]; 6.89 in [2]; 7.66 in [3]; 8.13 in [4] (pH 5 8.48, pH 7 7.10, pH 8 7.02); 7.71 in series [5]; 7.52 in [6]. Also, the Ka (log10 Ka (M-1)) was found to be 7.09 in series [7], 7.67 in series [9] and 5.26 in series [11]. Besides, the Ka is 7.13 log10 M-1 in [8] (control oligo) and 6.66 log10 M-1 in [10] (control oligo).
Regarding TCCTTTCCTTTCCTTTCCT [RAD27], the binding signal (% polarization change) in series [12] was found to be 22.
